B1: A375-MY518/B167-Lamlib (antibody, human IgG1, lambda)
heavy: EVQLVESGGGLVKPGGSLRLSCAASGFTFSTFTMNWVRQAPGKGLEWVSSISSKSTYIEYADSFKVRFTISRDNAKNSLYLQMNSLRAEDTAVYYCARYGAKNFLNWVFDYWGQGTLVTVSSASTKGPSVFPLAPSSKSTSGGTAALGCLVKDYFPEPVTVSWNSGALTSGVHTFPAVLQSSGLYSLSSVVTVPSSSLGTQTYICNVNHKPSNTKVDKKVEPKSCDKTHTCPPCPAPELWNGPSVFLFPPKPKDTLMISRTPEVTCVVVDVSDEDPEVKFNWYVDGVEVHNAKTKPREELYNSTYRVVSVLTVLHQDWLNGKEYKCKVSNTALPKPIEKTISKAKGQPREPQVYTLPPSREEMTKNQVSLTCLVKGFYPSDIAVEWESNGQPENNYKTTPPVLDSDGSFFLYSKLTVDKSRWQQGNVFSCSVMHEALHNHYTQKSLSLSP
light: QSALTQPPSASGSPGQTVTISCTGTRYDVGYYEYVSWYQQHPGKAPKLMIYETSKRLSGVPDRFSGSKSGNTASLTVSGLQAEDEADYYCSSYRYEHQVSFGGGTKLTVLGQPKAAPSVTLFPPSSEELQANKATLVCLISDFYPGAVTVAWKADSSPVKAGVETTTPSKQSNNKYAASSYLSLTPEQWKSHRSYSCQVTHEGSTVEKTVAPTECS
notes: copies: 2 + 2
B2: A375-P253/B167-Lamlib (antibody, human IgG1, lambda)
heavy: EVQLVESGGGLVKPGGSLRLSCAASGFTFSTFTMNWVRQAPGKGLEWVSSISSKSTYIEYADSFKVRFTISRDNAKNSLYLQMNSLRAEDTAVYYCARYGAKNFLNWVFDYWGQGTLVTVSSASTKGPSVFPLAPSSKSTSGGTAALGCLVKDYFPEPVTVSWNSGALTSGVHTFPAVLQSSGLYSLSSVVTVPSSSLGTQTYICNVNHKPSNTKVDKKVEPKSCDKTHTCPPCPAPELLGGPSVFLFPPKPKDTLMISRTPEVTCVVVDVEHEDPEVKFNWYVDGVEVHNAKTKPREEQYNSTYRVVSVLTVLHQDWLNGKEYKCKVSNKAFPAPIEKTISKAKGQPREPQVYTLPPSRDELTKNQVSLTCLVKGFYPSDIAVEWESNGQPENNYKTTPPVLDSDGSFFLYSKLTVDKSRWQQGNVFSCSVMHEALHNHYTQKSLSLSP
light: QSALTQPPSASGSPGQTVTISCTGTRYDVGYYEYVSWYQQHPGKAPKLMIYETSKRLSGVPDRFSGSKSGNTASLTVSGLQAEDEADYYCSSYRYEHQVSFGGGTKLTVLGQPKAAPSVTLFPPSSEELQANKATLVCLISDFYPGAVTVAWKADSSPVKAGVETTTPSKQSNNKYAASSYLSLTPEQWKSHRSYSCQVTHEGSTVEKTVAPTECS
notes: copies: 2 + 2
B3: A375-MY518a/B167-Lamlib (antibody, human IgG1, lambda)
heavy: EVQLVESGGGLVKPGGSLRLSCAASGFTFSTFTMNWVRQAPGKGLEWVSSISSKSTYIEYADSFKVRFTISRDNAKNSLYLQMNSLRAEDTAVYYCARYGAKNFLNWVFDYWGQGTLVTVSSASTKGPSVFPLAPSSKSTSGGTAALGCLVKDYFPEPVTVSWNSGALTSGVHTFPAVLQSSGLYSLSSVVTVPSSSLGTQTYICNVNHKPSNTKVDKRVEPKSCDKTHTCPPCPAPELWNGPSVFLFPPKPKDTLMISRTPEVTCVVVDVSDEDPEVKFNWYVDGVEVHNAKTKPREELYNSTYRVVSVLTVLHQDWLNGKEYKCKVSNTALPKPIEKTISKAKGQPREPQVYTLPPSREEMTKNQVSLTCLVKGFYPSDIAVEWESNGQPENNYKTTPPVLDSDGSFFLYSKLTVDKSRWQQGNVFSCSVMHEALHNHYTQKSLSLSP
light: QSALTQPPSASGSPGQTVTISCTGTRYDVGYYEYVSWYQQHPGKAPKLMIYETSKRLSGVPDRFSGSKSGNTASLTVSGLQAEDEADYYCSSYRYEHQVSFGGGTKLTVLGQPKAAPSVTLFPPSSEELQANKATLVCLISDFYPGAVTVAWKADSSPVKAGVETTTPSKQSNNKYAASSYLSLTPEQWKSHRSYSCQVTHEGSTVEKTVAPTECS
notes: copies: 2 + 2
B4: A375-P587/B167-Lamlib (antibody, human IgG1, lambda)
heavy: EVQLVESGGGLVKPGGSLRLSCAASGFTFSTFTMNWVRQAPGKGLEWVSSISSKSTYIEYADSFKVRFTISRDNAKNSLYLQMNSLRAEDTAVYYCARYGAKNFLNWVFDYWGQGTLVTVSSASTKGPSVFPLAPSSKSTSGGTAALGCLVKDYFPEPVTVSWNSGALTSGVHTFPAVLQSSGLYSLSSVVTVPSSSLGTQTYICNVNHKPSNTKVDKKVEPKSCDKTHTCPPCPAPDLLGGDSVFLFPPKPKDTLMISRTPEVTCVVIDVAEEDGEVKFNWYVDGVEVHNAKTKPREEQYNSTYRVVSVLTVLHQDWLNGKEYKCKVSNKALPAPIEKTISKAKGQPREPQVYTLPPSRDELTKNQVSLTCLVKGFYPSDIAVEWESNGQPENNYKTTPPVLDSDGSFFLYSKLTVDKSRWQQGNVFSCSVMHEALHNHYTQKSLSLSP
light: QSALTQPPSASGSPGQTVTISCTGTRYDVGYYEYVSWYQQHPGKAPKLMIYETSKRLSGVPDRFSGSKSGNTASLTVSGLQAEDEADYYCSSYRYEHQVSFGGGTKLTVLGQPKAAPSVTLFPPSSEELQANKATLVCLISDFYPGAVTVAWKADSSPVKAGVETTTPSKQSNNKYAASSYLSLTPEQWKSHRSYSCQVTHEGSTVEKTVAPTECS
notes: copies: 2 + 2

What was measured:
human FcRn = human FcRn (human, UniProt P55899 24-290; P61769 21-119); experiment: SPR 25C pH 6.0, steady state
Protocol: Biacore T200 (GE Healthcare) was used to assess the binding activity to human FcRn. Measurement was performed at 25° C. using 50 mM phosphate, 150 mM NaCl, 0.05 w/v %-P20, pH 6.0 as buffer. Human FcRn proteins used for this determination were prepared by the procedure described in WO2010107110. About 400 RU of antibody was captured using a sensor chip immobilized with CaptureSelect™ Human Fab-lambda Kinetics Biotin Conjugate (Thermo Fisher Scientific) as a molecule for ligand capturing, followed by the binding of human FcRn diluted in measuring buffer. The activity of the respective antibodies to bind FcRn was assessed by calculating KD(mol/L) by the steady-state model using Biacore T200 Evaluation Software 2.0.

[1] = molecular target: T1, human FcgRIa extracellular domain (human, UniProt P12314 16-292); experiment: SPR 25C
T1 construct: extracellular domain; also called hFcgRIa
Protocol: (§1) Biacore T200 (GE Healthcare) was used to evaluate the binding activity to the respective human Fcγ receptor (hereafter referred to as FcγR). Measurement was performed at 25° C. using 50 mM phosphate, 150 mM NaCl, 0.05 w/v %-P20, pH 7.4 as buffer. About 1000 RU of antibody was captured using a sensor chip immobilized with CaptureSelect™ Human Fab-lambda Kinetics Biotin Conjugate (Thermo Fisher Scientific) as a molecule for ligand capturing. Human FcγR was diluted to 8 nM for FcγRIa and 1000 nM for other FcγR in the measurement buffer, and it was interacted to the captured antibody. The binding activity of each antibody to FcγR was assessed by calculating the binding amount of FcγR (RU) per unit amount of antibody using Biacore T200 Evaluation Software 2.0.

[2] = molecular target: T2, human FcgRIIIa F158 extracellular domain (human, UniProt P08637 17-208); experiment: SPR 25C
T2 construct: extracellular domain; also called hFcgRIIIaF
Protocol: as §1

[3] = molecular target: T3, human FcgRIIb extracellular domain (human, UniProt P31994 43-217); experiment: SPR 25C
T3 construct: extracellular domain; also called hFcgRIIb
T3 sequence (looked up): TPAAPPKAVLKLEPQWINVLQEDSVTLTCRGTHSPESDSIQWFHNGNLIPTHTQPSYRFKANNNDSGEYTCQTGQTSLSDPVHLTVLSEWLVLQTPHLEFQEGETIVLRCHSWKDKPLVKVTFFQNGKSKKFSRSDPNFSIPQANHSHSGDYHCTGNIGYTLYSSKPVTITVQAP
Protocol: as §1

[4] = molecular target: T4, human FcgRIIIa V158 extracellular domain (human, UniProt P08637 17-208); experiment: SPR 25C
T4 construct: extracellular domain; also called hFcgRIIIaV
Protocol: as §1

[5] = molecular target: T5, human FcgRIIa type R extracellular domain (human, UniProt P12318 34-217); experiment: SPR 25C
T5 construct: extracellular domain; also called hFcgRIIaR
T5 sequence (looked up): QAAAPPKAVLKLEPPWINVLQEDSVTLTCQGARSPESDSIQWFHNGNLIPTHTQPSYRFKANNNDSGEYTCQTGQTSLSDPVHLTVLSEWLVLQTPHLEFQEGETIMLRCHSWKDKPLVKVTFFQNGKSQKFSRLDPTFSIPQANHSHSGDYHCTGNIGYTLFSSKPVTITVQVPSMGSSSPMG
Protocol: as §1

[6] = molecular target: T6, human FcgRIIa type H extracellular domain (human, UniProt P12318 34-217); experiment: SPR 25C
T6 construct: extracellular domain; also called hFcgRIIaH
T6 sequence (looked up): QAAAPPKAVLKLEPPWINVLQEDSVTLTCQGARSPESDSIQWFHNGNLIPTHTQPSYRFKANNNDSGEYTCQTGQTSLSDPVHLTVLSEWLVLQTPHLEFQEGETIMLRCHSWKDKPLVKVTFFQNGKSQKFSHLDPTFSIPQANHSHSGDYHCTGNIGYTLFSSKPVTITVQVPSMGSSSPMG
Protocol: as §1

Chain of human FcRn (P55899 24-290 limits assumed, chain 1 of 2): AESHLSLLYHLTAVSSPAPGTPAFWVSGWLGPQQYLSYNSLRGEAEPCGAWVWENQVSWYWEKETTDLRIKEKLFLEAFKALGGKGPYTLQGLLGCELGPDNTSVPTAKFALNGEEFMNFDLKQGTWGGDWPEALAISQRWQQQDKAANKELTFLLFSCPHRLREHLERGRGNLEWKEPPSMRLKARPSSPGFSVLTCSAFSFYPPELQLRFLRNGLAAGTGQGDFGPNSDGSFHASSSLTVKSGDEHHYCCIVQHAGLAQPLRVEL
Chain of human FcRn (P61769 21-119 limits assumed, chain 2 of 2): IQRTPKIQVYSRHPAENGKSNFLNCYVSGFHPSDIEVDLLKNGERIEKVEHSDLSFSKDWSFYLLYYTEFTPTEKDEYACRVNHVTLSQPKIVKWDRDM
T4 sequence (P08637 17-208 F176V): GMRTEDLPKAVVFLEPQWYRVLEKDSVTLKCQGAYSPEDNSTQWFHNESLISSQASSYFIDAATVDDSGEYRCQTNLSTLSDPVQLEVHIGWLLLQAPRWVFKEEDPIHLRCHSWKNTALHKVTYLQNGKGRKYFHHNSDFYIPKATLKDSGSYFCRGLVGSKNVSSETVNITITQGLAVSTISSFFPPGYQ
T2 sequence (P08637 17-208): as the sequence (P08637 17-208 F176V) above, with V160F counted along it
T1 sequence (P12314 16-292): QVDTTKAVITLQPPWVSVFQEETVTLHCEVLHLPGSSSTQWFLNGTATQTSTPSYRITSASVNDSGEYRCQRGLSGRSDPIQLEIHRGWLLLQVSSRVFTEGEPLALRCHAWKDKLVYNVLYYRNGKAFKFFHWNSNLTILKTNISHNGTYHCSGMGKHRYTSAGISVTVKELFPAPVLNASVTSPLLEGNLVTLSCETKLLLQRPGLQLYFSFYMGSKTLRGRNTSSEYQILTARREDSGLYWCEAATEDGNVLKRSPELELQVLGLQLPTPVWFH

Binder | Kd (human FcRn) | binding per 1RU antibody [1] | relative binding (A375-G1T3/B167-Lamlib=1) [1] | binding per 1RU antibody [2] | relative binding (A375-G1T3/B167-Lamlib=1) [2] | binding per 1RU antibody [3] | relative binding (A375-G1T3/B167-Lamlib=1) [3] | binding per 1RU antibody [4] | relative binding (A375-G1T3/B167-Lamlib=1) [4] | binding per 1RU antibody [5] | relative binding (A375-G1T3/B167-Lamlib=1) [5] | binding per 1RU antibody [6] | relative binding (A375-G1T3/B167-Lamlib=1) [6]
B1 | 1270 nM | 0.002 RU | 0.02 | 0.0009 RU | 0.04 | 0.0482 RU | 4.4 | 0.0015 RU | 0.02 | 0.046 RU | 0.99 | 0.0465 RU | 0.82
B2 | 1420 nM | 0.0937 RU | 1.15 | 0.0056 RU | 0.26 | 0.156 RU | 14.3 | 0.0019 RU | 0.03 | 0.168 RU | 3.62 | 0.0497 RU | 0.88
B3 | 1320 nM | 0.0033 RU | 0.04 | 0.0006 RU | 0.03 | 0.0489 RU | 4.46 | 0.0009 RU | 0.01 | 0.047 RU | 1.01 | 0.0479 RU | 0.84
B4 | 1700 nM | 0.0962 RU | 1.18 | 0.0001 RU | 0 | 0.143 RU | 13 | 0.0001 RU | 0 | 0.0371 RU | 0.8 | 0.0029 RU | 0.05
